According to patent US5853984, “Use of nucleic acid ligands in flow cytometry” (NeXstar Pharmaceuticals, Inc.):

Tests used:
[1] = biological target: T1, Human neutrophil elastase (HNE) (Homo sapiens) (UniProt P08246); assay: flow; conditions: HNE on polystyrene beads, 2 mM MgCl2, 1% BSA, room temperature
T1 sequence: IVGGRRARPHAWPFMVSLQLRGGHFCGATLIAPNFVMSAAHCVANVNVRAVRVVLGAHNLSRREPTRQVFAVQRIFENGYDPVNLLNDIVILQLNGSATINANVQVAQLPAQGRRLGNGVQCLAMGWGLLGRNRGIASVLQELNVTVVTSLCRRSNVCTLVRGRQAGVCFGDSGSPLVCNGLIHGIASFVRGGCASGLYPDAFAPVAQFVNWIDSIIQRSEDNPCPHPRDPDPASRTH

[2] = biological target: T1, Human neutrophil elastase (HNE) (Homo sapiens); assay: filter; conditions: 150 mM NaCl, 100 mM Tris-HCl pH 7.0, 2 mM MgCl2, 6 mM KCl, 0.02% HSA, 37 C
[3] = biological target: T2, Human neutrophil elastase (HNE) (Homo sapiens, UniProt P08246 P08246:30-267); assay: flow; second-step staining with streptavidin-phycoerythrin; affinity lower than direct fluorescence measurement; conditions: tags: Athens Research and Technology, salt-free lyophilized solid; label: biotin (streptavidin-phycoerythrin); G-quartet with duplex ends
[4] = biological target: T2, Human neutrophil elastase (HNE); assay: flow; HNE on polystyrene beads, 2 mM MgCl2, 1% BSA, room temperature; conditions: tags: Athens Research and Technology, salt-free lyophilized solid; label: fluorescein; G-quartet with duplex ends
Experimental: Beads (0.5% solids) in acetate buffer were coated with HNE (0.5 μg/cm² of bead surface area) for 30 min and then washed and suspended (approx. 5×10⁵ beads/μL) in acetate buffer containing 2% BSA. HNE coated beads were stored at 4° C. until use.
Staining of HNE coated beads was achieved by incubating beads (approx. 3×10⁵) with varying concentrations of fluoresceinated oligonucleotides in 50 μL of binding buffer consisting of 100 mM Tris-HCl (pH 7.0), 0.15M NaCl, 6 mM KCl, 2 mM MgCl₂ and 1% BSA for 30 min at room temperature. The beads were then washed with 2 mL of the same buffer and suspended in 0.5 mL for analysis. Staining with mouse anti-HNE was accomplished in the same method except that bound antibody was detected by a second step fluorescein isothiocyanate (FITC) labeled antibody (X56-FITC). […] Analysis was performed on a FACScan™ flowcytometer (Becton Dickinson). The sensitivity of the flowcytometer was adjusted so that the autofluorescence of the unstained beads was located in the middle of the first decade.

[5] = biological target: T2, Human neutrophil elastase (HNE); assay: filter; 150 mM NaCl, 100 mM Tris-HCl pH 7.0, 2 mM MgCl2, 6 mM KCl, 0.02% HSA, 37 C; conditions: tags: Athens Research and Technology, salt-free lyophilized solid; label: fluorescein; G-quartet with duplex ends
[6] = tail-to-tail dimer via symmetric 3'-3' linker (X) with ethylene glycol linkers and two fluoresceins (LFLXLFL)
[7] = two internal fluoresceins in extension

For “TAGCGATACTGCGTGGGTTGGGGCGGGTAGGGCCAGCAGTCTCGTNNNNNNNTGCTCTGACGACCGGGATGGGCGGGGTTGGGTGCGTCATAGCGAT [DNA-DIMER-TT]”, the Kd [1, 6] was 20 nM and the Kd [2, 6] was 3 nM.

“GNCACAGTCGACGATACTGCGTGGGTTGGGGCGGGTAGGGCCAGCAGTCTCGTNGACTGRGTC [DNA-EXT]” gave a Kd [1, 7] of 48 nM and a Kd [2, 7] of 12 nM.

TAGCGATACTGCGTGGGTTGGGGCGGGTAGGGCCAGCAGTCTCGTT (ssDNA, biotin attached to 3' end through a linker) [biotinylated DNA ligand]: binds [3].

B1: DNA-LNK-5F (ssDNA)
DNA: TAGCGATACTGCGTGGGTTGGGGCGGGTAGGGCCAGCAGTCTCGT
modifications: 5' fluorescein followed by two hexaethylene glycol spacers [5' fluorescein + two hexaethylene glycol spacers (n1-n3, left out) before T1]
With B1 the Kd [4] was 110 nM and the Kd [5] was 12 nM.
